The supplement of paper PMC7125110
± gives the standard error. Fewer inactive variants are shown than the library holds.

B1: glmS ribozyme (parent)
chain: AUAAAAGCGCCAGAACUACAGAAAUGUAGUUGACGAGGAGGAGGUUUAUCGAAUUUUCGGCGGAUGCCUCCAAA

Experiments:
Conditions in all cases: with glucosamine-6-phosphate
glucosamine-6-phosphate [1] = variants of: B1; assay: self-cleavage kobs at 40 uM GlcN6P; higher = faster cleavage; RNA array
In short: (§1)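 In situ transcription by E. coli RNA polymerase produced barcoded ribozyme variants on sequenced MiSeq chips, and a hybridised Cy3 probe tracked them at 37 °C. Glucosamine-6-phosphate was flowed in at 40 μM to 10 mM in HEPES/KCl/Mg(OAc)2 buffer. kcat and KM were taken from weighted Michaelis–Menten fits of kobs values from exponential decay fits.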

glucosamine-6-phosphate [2] = variants of: B1; assay: self-cleavage kobs at 2500 uM GlcN6P; higher = faster cleavage; RNA array
In short: as §1

glucosamine-6-phosphate [3] = variants of: B1; assay: self-cleavage kobs at 640 uM GlcN6P; higher = faster cleavage; RNA array
In short: as §1

glucosamine-6-phosphate [4] = variants of: B1; assay: self-cleavage kobs at 10000 uM GlcN6P; higher = faster cleavage; RNA array
In short: as §1

glucosamine-6-phosphate [5] = variants of: B1; assay: self-cleavage kobs at 160 uM GlcN6P; higher = faster cleavage; RNA array
In short: as §1

Variant | self-cleavage kobs at 40 uM GlcN6P (glucosamine-6-phosphate [1]) | self-cleavage kobs at 2500 uM GlcN6P (glucosamine-6-phosphate [2]) | self-cleavage kobs at 640 uM GlcN6P (glucosamine-6-phosphate [3]) | self-cleavage kobs at 10000 uM GlcN6P (glucosamine-6-phosphate [4]) | self-cleavage kobs at 160 uM GlcN6P (glucosamine-6-phosphate [5])
G37U A39G | < 1e-05 s⁻¹ | < 1e-05 s⁻¹ | – | – | –
G35C A48G C50A | < 1e-05 s⁻¹ | – | – | – | –
U30A G62A | < 1e-05 s⁻¹ | < 1e-05 s⁻¹ | < 1e-05 s⁻¹ | < 1e-05 s⁻¹ | –
C10G G29A U54G | < 1e-05 s⁻¹ | – | – | – | –
C11G G59C | 5.21e-05 ± 2.3e-05 s⁻¹ | – | – | 0.000764 ± 0.00016 s⁻¹ | –
A6G G40U A52G U65G | < 1e-05 s⁻¹ | – | – | < 1e-05 s⁻¹ | –
C10U G40U C58A | < 1e-05 s⁻¹ | < 1e-05 s⁻¹ | – | < 1e-05 s⁻¹ | –
A48C C61A | < 1e-05 s⁻¹ | – | < 1e-05 s⁻¹ | < 1e-05 s⁻¹ | –
G7C C70A | < 1e-05 s⁻¹ | < 1e-05 s⁻¹ | < 1e-05 s⁻¹ | < 1e-05 s⁻¹ | < 1e-05 s⁻¹
C10G G29A G37A G38U G41C C71U | < 1e-05 s⁻¹ | – | – | < 1e-05 s⁻¹ | –
C11U C34A | < 1e-05 s⁻¹ | – | < 1e-05 s⁻¹ | – | –
C11G A12U | < 1e-05 s⁻¹ | < 1e-05 s⁻¹ | – | – | –
C34A G62A | < 1e-05 s⁻¹ | < 1e-05 s⁻¹ | < 1e-05 s⁻¹ | < 1e-05 s⁻¹ | < 1e-05 s⁻¹
A33G G51A | < 1e-05 s⁻¹ | < 1e-05 s⁻¹ | – | < 1e-05 s⁻¹ | < 1e-05 s⁻¹
A6G A52U | < 1e-05 s⁻¹ | – | < 1e-05 s⁻¹ | – | < 1e-05 s⁻¹
G41U G63C C70A | < 1e-05 s⁻¹ | – | – | – | –
A6U G29U G38A C58A | < 1e-05 s⁻¹ | – | – | – | –
C11G G40A A42G C58U C67G C68A | 0.00042 ± 9.3e-05 s⁻¹ | – | – | 0.000191 ± 3.9e-05 s⁻¹ | –
G40U G59U U69C C71U | < 1e-05 s⁻¹ | < 1e-05 s⁻¹ | – | – | –
U30A G37C U65C | < 1e-05 s⁻¹ | < 1e-05 s⁻¹ | – | – | –
G51A U65C | < 1e-05 s⁻¹ | – | – | < 1e-05 s⁻¹ | –
G62C U65A | < 1e-05 s⁻¹ | – | – | – | –
U55A C68U | 0.000668 ± 0.00012 s⁻¹ | 0.00477 ± 0.00099 s⁻¹ | 0.00148 ± 0.00045 s⁻¹ | 0.0158 ± 0.004 s⁻¹ | 0.000841 ± 0.00019 s⁻¹
C16G G21U | 0.00012 ± 5.7e-05 s⁻¹ | – | – | – | –
U31A G35C A36U | < 1e-05 s⁻¹ | – | < 1e-05 s⁻¹ | < 1e-05 s⁻¹ | –
C8U A33C | < 1e-05 s⁻¹ | < 1e-05 s⁻¹ | < 1e-05 s⁻¹ | < 1e-05 s⁻¹ | < 1e-05 s⁻¹
